Bounds are passed on as bounds.
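Further: 20 min heating vs room temperature control held 20 min.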

The series is described as follows: soluble fraction after stress (log2 fold change); higher = more stays soluble; pooled small domains, quantitative proteomics. To be noted: stress: 75 degC.
Turning to “HMSDQIQQIAERIAGLRDIAGYSVEELARELGISAEEYKRYESGEVDIPIGFLYKLANKYNVELTAILT”, the “soluble fraction (log2)” value was -0.289.
Take “HMSDRFLDQEGVALSTLRPSGTVVLDSGEHLDVVTRGEFIEQGERVKVIKAESTWYVVEQIN”: the “soluble fraction (log2)” value amounted to 0.112.
With “HMSDRLRLGRRIRAARLEQNLSQAALAERLGISASYLNLLEHDRRSLTTVLLLKLAQVLGLELRDLAAG”, the “soluble fraction (log2)” value is -2.49.
With “HMSDRLRPGDMVVVVGKKKRYPVFSAFDIDFVEAGDVGKVLTVKREEVVVGFPKKGEGTFTPSELNIAH” the figure was -1.18; with “HMSDTGQELHDALNMARRTLTILEEQAAGYTALTIPARLVLELEEKRKDVVRLETQIRSAATGTPG”, -0.649.
Turning to “HMSDTLPRLLWNFQMAKRLDEMNGAEKRRYQLVLIHPQASEKERDYASSFAHQARMLGIEVAIRDS”, the “soluble fraction (log2)” value was -0.395.
With “HMSDVVFRINANGLNVSGLANGERVSVYDTTGKLVTTAVSTQDNGTLNLPLKQSGGIYIARTQSGVSFKFT” the figure was -0.786; with “HMSDYKSYLQELVQTDKKSLSYNVVKETGPAHDKTFEVEVEVDGIIYAHGVGKSKKEAEQNAAKNAIMISA”, 0.3.
For the sequence “HMSDYLGSLSHEEKMIFNHFDEDSSTIENMAKKTELKPELISQIFLNLELRGFLRQTEGGLYEKI”, the “soluble fraction (log2)” value is -0.43.
For “HMSDYYEVLGVTRQADAEEIKRAYRRKARQLHPDVAGPGHEEEFKEVTVAYEVLSDPEKRQAYDLGGQDAL”, the “soluble fraction (log2)” value was 0.0155.
With “HMSEDAVKFRAAVEVENGLAQRNLNKNQAALILGVDRSYFTYIISGKKTPSPDMAKRIGLLLGFDWRVFYA” the figure was -1.89; with “HMSEEIKVPNFVGSTFEKAQALAQETGLEIARGEDVYSPDQEEGKITSQNPTADSVVSPGKLITVYVSKG”, 0.385.
For “HMSEIKDRLREARRNKGLSQAGLSKLLGVSQASIAAIESGRNKRPTNLVSIAKALDVSPYWLETGK”, the “soluble fraction (log2)” value is -0.229.
For “HMSEITQTLSMIGKEVTLEIPDEKDKTKTTEVKGIVTEASFKDGTGKVKVNGEYYSIAYITSIRDT” the value was not below 1.04; for “HMSEIVEEQNTKLKQAVSKLSKRQQEVLYLKFEEGLDYEQISKIMDLKYQSVRNLVSTAIIKIKEH”, -2.72; for “HMSEKELTDLIERIKERRLKLEMSYQDLSDATGISKSTLQRYETGYIKKVPINQIEILAKALHTTPSYLMG”, -0.411.
On to “HMSEKIDINNSNELELKQLPLTNEQIKSLIEFRRLHGEIQNIYELKNIDFFNIEKVHELKAHIEIKKII”, for which the “soluble fraction (log2)” value is -1.03.
Turning to “HMSELADDPVYTALEKAADKAGLQLTVRILNDLADAVLKRGKKKLTAAQAGKVIARAESELAKSRID”, the “soluble fraction (log2)” value worked out at 0.00292.
Turning to “HMSELDASYLGQRVRYVSGFTETDPSEGLVEFRGSNWRARAEHPPLDHSGHWVIVKVESNTLWVEEKSN”, the “soluble fraction (log2)” value was -1.57.
Take “HMSENEIDELRRRFAREAMALMERKGEEVSRTRLAAELSVARARIDAVFPEESDLLEAVTAEWFA”: the “soluble fraction (log2)” value was -0.477.
Turning to “HMSENEVQAKVKEIVDRYAGDKSALIAILQDVQDEYRYLPKEALVSIQQQMNIPLSRVYEVATFYDAFS”, the “soluble fraction (log2)” value is -0.556.
“HMSEPIYTQLKEILTQKIVNGEFPPGARLPSEYELTELYHISRSTVRLALKELEASGMIVRRRGKGTFVSS”: the “soluble fraction (log2)” value is -2.39.
For the sequence “HMSEPRYRQLATILAQEIRSNHSAGDQLPSEQALAKRFEVNRHTVRRAVDELVAAGMVTRHQGWGTQVV”, the “soluble fraction (log2)” value is -0.158.
Turning to “HMSEQGVITAKFASIVGNQNIQLVMFPDSVYLKGQVSSEEEKKRAETVASSLIQDRKIVNLIEFE”, the “soluble fraction (log2)” value was -0.075.
Take “HMSEQIALQFAKAKQHHTGIALKGIEALELRYKGYTGKEIAALYHTSPKSVFSWISRAKQKLRQN”: the “soluble fraction (log2)” value is -0.272.
Regarding “HMSEQLHALIDRLDDIPDDELKKNWPGTLRDLVDVISAELHRQGIEPAQAGMLARKVAAAQAGYMG”, the “soluble fraction (log2)” value is -0.486.
In the case of “HMSEQLKQIAERIKELRNIAGLGEEELAAKLDIPVDTYREYESGNVDIPVSFLYKISGMFNVELTAIL”, the “soluble fraction (log2)” value is -1.1.

The values above are taken from the domain aggregation screens of Martell et al. (2025).
